Assay results as given in US20160333096A1 (published 2016).
Each block holds one binder with its values, some of them ahead of it.

Experiments:
canine PD-1 antigen [1] = target: T1, canine PD-1 antigen (canine); test: SPR (Biacore T200), canine PD-1 amine-coupled to chip, antibody as analyte, 1:1 fit
T1 construct: also called cPD-1; canine Programmed Death Receptor 1
T1 chain: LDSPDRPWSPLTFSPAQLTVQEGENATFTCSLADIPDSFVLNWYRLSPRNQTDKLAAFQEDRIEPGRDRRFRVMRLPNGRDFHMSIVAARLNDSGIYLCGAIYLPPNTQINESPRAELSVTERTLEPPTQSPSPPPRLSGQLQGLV
Description: (§1) Approximately 70 resonance units (RU) of the canine PD-1 antigen was immobilized directly by amine coupling. Affinity measurements were made via label-free surface plasmon resonance based technology (e.g., Biacore® T200) with an association time of 300 seconds, a dissociation time of 1200 seconds, and at concentrations of 50, 100, 200 (×2) 400, and 800 nanomolar (nM). A fitting model of 1:1 binding was used. […] Moreover, the mouse anti-canine PD-1 monoclonal antibody and the corresponding caninized mouse anti-canine PD-1 monoclonal antibody from the same clone yielded strikingly similar Kd values (see Table 5 below).

canine PD-1 antigen [2] = target: T1, canine PD-1 antigen; test: SPR (Biacore T200), canine PD-1 amine-coupled to chip, antibody as analyte, 1:1 fit; off-rate below detection limit
Description: as §1

kon (canine PD-1 antigen [1]): 23000 M⁻¹ s⁻¹
Kd (canine PD-1 antigen [2]): ≤ 0.2 nM
koff (canine PD-1 antigen [2]): ≤ 5e-06 s⁻¹
B1: Murine 2H9 (antibody, V domains shown)
VH: EVQLQQSVAELVRPGASVKLSCTASGFNIKNTYMHWIKQRPEQGLEWIGRIAPANVDTKYAPKFQGKATITADTSSNTAYMQLSTLTSEDTAIYYCVLIYYDYDGDIDVWGTGTTVTVSS
VL: DIQMNQSPSSLSASLGDTITITCHASQNINVWLSWYQQRPGNIPKLLIYKASHLHTGVPSRFSGSGSGTGFTLTISSLQPEDIATYYCQQGQSWPLTFGAGTKLELK
notes: also called mAb 2H9

Kd (canine PD-1 antigen [1]): 2 nM
koff (canine PD-1 antigen [1]): 3.4e-05 s⁻¹
kon (canine PD-1 antigen [1]): 18000 M⁻¹ s⁻¹
B2: Murine 3B6 (antibody, V domains shown)
VH: QIQLVQSGPELKKPGETVKISCKASGYTFTTYGMSWVKQAPGKGLKWMGWINIYSGIPTYADDFKGRFAFSLETSASTAYLQIDNLKNEDTATYFCARFDGPDYWGQGTTLTVSS
VL: DIVMTQSPSSLAVSVGRKVTMSCKSSQSLLNSVNQKNYLAWYQQKPGQSPKVLVYFASARVSGVPDRFIGSGSGTDFTLAISSVQAEDLTTYFCQQYFSTPLTFGAGTKLELK
notes: Mouse monoclonal IgG from hybridoma; also called mAb 3B6
